Reference: paper PMC11050682, “https://orcid.org/0009-0003-0282-9605 Pérez-Mora Salvador Conceptualization Methodology Software Validation Formal analysis Investigation Data curation Writing – original draft Writing – review & edit”

Biological target: T1, drEhHSTF5 (dimeric rEhHSTF5, fraction 10) (Entamoeba histolytica, UniProt C4M5X4 1-329)
T1 sequence: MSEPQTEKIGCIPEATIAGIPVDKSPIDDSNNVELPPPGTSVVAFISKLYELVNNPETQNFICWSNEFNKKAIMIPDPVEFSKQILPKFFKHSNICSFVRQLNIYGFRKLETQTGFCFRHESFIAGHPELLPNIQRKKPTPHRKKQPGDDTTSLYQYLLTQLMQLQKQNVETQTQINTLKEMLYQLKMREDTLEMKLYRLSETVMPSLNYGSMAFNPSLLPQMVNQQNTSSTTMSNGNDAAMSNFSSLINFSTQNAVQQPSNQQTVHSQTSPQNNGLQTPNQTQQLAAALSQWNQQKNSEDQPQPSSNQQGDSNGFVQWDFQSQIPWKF
Assay: competition; 150x molar excess; complex reduced
Details: protein: recombinant; tags: N-terminal His6 (pET-28a); chain copies: 2; blunt

B1: HSE_EhPgp5 unlabelled (specific competitor) (dsDNA)
DNA 1: ATAGAAATTTTTCATA
DNA 2: TATGAAAAATTTCTAT
  binding result: binds
